The Kd is the constant that tells how readily two partners part at equilibrium. Lower therefore signals a tighter complex.

The target of the assay is dengue poly-immunoglobulin G scaffold (D-PIGS), unfractionated, from ∆XF N. benthamiana. Put plainly: SPR; Biacore X100, affinity layout: 200 RU of D-PIGS (unfractionated) or hIgG1 captured on immobilised protein A (CM5 chip); CD16a or CD64 injected as analyte, 12.5 to 800 nM, contact 60 s, 50 uL/min, dissociation 200 s; two-state model for CD16a, 1:1 model for CD64. On the technique in general: Surface plasmon resonance follows binding to a sensor surface in real time, without labels.

“recombinant human CD16a (from UniProt P08637 17-208) (receptor)”: the Kd stood at 24.8 nM.

Values taken from PMC5999314.
